# Data reported in paper PMC11267260, “Atom‐Modified gDNA Enhances Cleavage Activity of TtAgo Enabling Ultra‐Sensitive Nucleic Acid Testing”.
# T1: TtAgo (Thermus thermophilus Argonaute) (Thermus thermophilus, UniProt Q746M7 1-685)
# T1 sequence: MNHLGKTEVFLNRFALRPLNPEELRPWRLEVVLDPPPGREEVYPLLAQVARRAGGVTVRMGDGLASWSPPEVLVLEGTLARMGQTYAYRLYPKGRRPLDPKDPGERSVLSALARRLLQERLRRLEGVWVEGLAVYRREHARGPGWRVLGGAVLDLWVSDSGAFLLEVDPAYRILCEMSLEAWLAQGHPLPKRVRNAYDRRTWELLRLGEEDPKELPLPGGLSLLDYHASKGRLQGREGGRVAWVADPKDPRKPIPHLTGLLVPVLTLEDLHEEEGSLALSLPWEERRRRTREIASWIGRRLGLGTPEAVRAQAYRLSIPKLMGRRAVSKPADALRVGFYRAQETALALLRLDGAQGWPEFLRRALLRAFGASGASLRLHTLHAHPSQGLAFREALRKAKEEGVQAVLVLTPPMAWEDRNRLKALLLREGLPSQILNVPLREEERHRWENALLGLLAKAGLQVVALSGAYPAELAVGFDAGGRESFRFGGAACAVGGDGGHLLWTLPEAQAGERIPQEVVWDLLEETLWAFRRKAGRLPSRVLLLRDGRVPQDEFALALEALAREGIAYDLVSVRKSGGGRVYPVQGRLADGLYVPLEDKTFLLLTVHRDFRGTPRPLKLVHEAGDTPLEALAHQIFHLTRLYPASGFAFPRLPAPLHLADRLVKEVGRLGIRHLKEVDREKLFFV
# Target: T1, TtAgo (Thermus thermophilus Argonaute)
# Assay: EMSA; ternary complex; higher than with C-gDNA; BLI in 1x reaction buffer (composition, pH and temperature not given in the material); EMSA conditions not given
# Conditions: protein: recombinant; tags: Ni-column purified; dialyzed with TEV protease (tag not described); guide 1-18 pairs with target 12-29; target overhangs 11 nt 5', 1 nt 3'
binder,measurement,value
"F1-gDNA + target (mixed, 2'-F on C18 of guide) DNA 1: CATGCATCGATCAGCTAC DNA 2: CTGCAGTCGTCGTAGCTGATCGATGCATGC",binding result,binds
